Assay results from patent publication US7078197.

Target: 35S-labeled mRNA-peptide fusion prepared from mRNA 1 crosslinked to linker B, encoding the Flag and Strep-Tag II epitope
Experiment: precipitation of 35S-labeled fusion on affinity resin, wash, scintillation counting

Substance | fusion binding (percent bound)
Anti-Flag M2 Affinity Gel (Sigma, MO) (antibody) | 54%
StrepTactin Sepharose (Genosys, Tex.) | 62%
